In publication PMC4329188, “Expression, purification, crystallization, and preliminary X-ray crystallographic studies of the human adiponectin receptors, AdipoR1 and AdipoR2” (Journal of Structural and Functional Genomics, 2015):

Molecular target: T1, purified AdipoR1Δ88 (human adiponectin receptor 1, residues 89–375), as used for SPR and antibody screening (human, UniProt Q96A54 89-375)
T1 construct: adiponectin receptor 1 (AdipoR1), human, residues 89-375 (N-terminally truncated mutant Δ88); Same construct as m1; SDS-denatured in the dot blot; source: Trichoplusia ni (High Five) insect cells, baculovirus; purified; reconstituted into liposomes for SPR and ELISA
T1 sequence (looked up): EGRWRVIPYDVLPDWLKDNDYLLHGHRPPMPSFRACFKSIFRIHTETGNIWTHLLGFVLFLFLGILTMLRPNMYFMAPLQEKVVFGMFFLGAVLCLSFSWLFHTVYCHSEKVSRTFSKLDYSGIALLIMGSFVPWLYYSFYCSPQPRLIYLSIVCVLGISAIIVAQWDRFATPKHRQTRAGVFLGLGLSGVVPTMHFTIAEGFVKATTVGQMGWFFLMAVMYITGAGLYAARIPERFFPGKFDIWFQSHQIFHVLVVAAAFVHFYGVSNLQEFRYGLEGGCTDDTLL
Assay: SPR; purified AdipoR1Δ88 reconstituted into liposomes (egg yolk PC, biotinyl-PE) and immobilised on a sensor chip SA; osmotin 0.5–8 μM as analyte; Biacore T200
Settings: both partners purified

Kd: 700 nM
B1: osmotin (ligand)
chain: ATIEVRNNCPYTVWAASTPIGGGRRLDRGQTWVINAPRGTKMARVWGRTNCNFNAAGRGTCQTGDCGGVLQCTGWGKPPNTLAEYALDQFSGLDFWDISLVDGFNIPMTFAPTNPSGGKCHAIHCTANINGECPRELRVPGGCNNPCTTFGGQQYCCTQGPCGPTFFSKFFKQRCPDAYSYPQDDPTSTFTCPGGSTNYRVIFCPNGQAHPNFPLEMPGSDEVAK
